Measurements from patent US20100099627A1 (YEDA RESEARCH AND DEVELOPMENT, published 2010).
Positions count from the first letter of the chain named.

T1: TEY-AAA-ERK2, P63086
T1 chain: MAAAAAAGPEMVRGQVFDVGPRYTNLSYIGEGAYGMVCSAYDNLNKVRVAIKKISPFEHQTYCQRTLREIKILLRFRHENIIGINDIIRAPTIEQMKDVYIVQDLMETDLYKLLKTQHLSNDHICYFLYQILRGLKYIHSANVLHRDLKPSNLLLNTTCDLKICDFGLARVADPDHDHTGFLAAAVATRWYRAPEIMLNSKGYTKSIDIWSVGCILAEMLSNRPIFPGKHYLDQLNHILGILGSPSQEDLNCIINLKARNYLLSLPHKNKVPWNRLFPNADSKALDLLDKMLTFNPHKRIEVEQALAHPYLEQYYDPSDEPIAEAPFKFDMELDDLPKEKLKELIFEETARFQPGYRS

T2: WT-GFP-ERK2, P63086
T2 chain: T1 chain with A183T, A184E, A185Y

T3: APA-GFP-ERK2, P63086
T3 chain: T1 chain with A183T, A184E, A185Y, S244A, S246A

B1: active GST-ERK2 (protein)
chain: T1 chain with A183T, A184E, A185Y
B2: WT-GFP-ERK2 (enzyme, UniProt P63086 1-358, looked up)
chain: T1 chain with A183T, A184E, A185Y
modifications: SPS domain (Ser244, Ser246) and TEY motif phosphorylated upon stimulation of the cells (EGF, TPA, VOOH); the state depends on the cell treatment named in each row
notes: Overexpressed in HeLa or COS7 cells and immunoprecipitated with anti GFP Ab; also called WT-ERK2; WT-ERK; not shown: GFP encoded by pEGFP C1 (Clontech)
B3: APA-GFP-ERK2 (enzyme, UniProt P63086 1-358, looked up)
chain: T1 chain with A183T, A184E, A185Y, S244A, S246A
notes: also called GFP-ERK244/6A; ERK-AA; not shown: GFP encoded by pEGFP C1 (Clontech)
B4: EPE-GFP-ERK2 (enzyme, UniProt P63086 1-358, looked up)
chain: T1 chain with A183T, A184E, A185Y, S244E, S246E
notes: also called GFP-ERK244/6E; ERK-EE; not shown: GFP encoded by pEGFP C1 (Clontech)

How the values were obtained:
TEY-AAA-ERK2, P63086 = molecular target: T1, TEY-AAA-ERK2, P63086
WT-GFP-ERK2, P63086 = molecular target: T2, WT-GFP-ERK2, P63086
APA-GFP-ERK2, P63086 = molecular target: T3, APA-GFP-ERK2, P63086
importin-β = molecular target: T4, importin-β (UniProt Q14974 1-876); assay: co-immunoprecipitation with anti GFP Ab from HeLa cells, Western blot with anti importin-β Ab
T4 construct: also called Impβ
Experimental: FIG. 9A. […] The extracts of the treated cells were then subjected to coimmunoprecipitation using A/G beads pre-conjugated with anti GFP Ab and mild washes. […] The equal amount of immunoprecipitated ERKs was determined with anti GFP (αGFP; IP) Ab. FIG. 19B. […] HeLa cells overexpressing 2GFP, 2GFP-SPS, 2GFP-APA and 2GFP-EPE constructs were subjected to coimmunoprecipitation as described in FIG. 19A (without EGF stimulation). FIG. 19C. […] This was followed by mild washing, and the beads were then subjected to Western blot analysis using anti His (αHis) and anti αGFP Abs.

Row | Binder | ^32P incorporation, in vitro kinase assay (reduction against GFP-ERK2) (TEY-AAA-ERK2, P63086) | ^32P incorporation, in vitro kinase assay (WT-GFP-ERK2, P63086) | ^32P incorporation, in vitro kinase assay (reduction against GFP-ERK2) (APA-GFP-ERK2, P63086) | binding result (importin-β)
1 | B1 | The phosphorylation of TEY-AAA was reduced by ˜25% | ^32P incorporation to GFP-ERK2 was detected mainly when this protein was incubated with Act-ERK2 | that of SPS-APA was reduced by ˜80% | 
2 | B2 |  |  |  | no binding
3 | B3 |  |  |  | no binding
4 | B4 |  |  |  | no binding
